We go through 5 molecules from doi:10.1101/228536 (bioRxiv, 2017).

The labels stand for the following.
T1: Med15 KIX+ABD1,2,3 (Med15 1-651 Δ239-272, Δ373-483) (yeast, UniProt P19659 1-651, Δ239-272 | Δ373-483)
T1 sequence (looked up): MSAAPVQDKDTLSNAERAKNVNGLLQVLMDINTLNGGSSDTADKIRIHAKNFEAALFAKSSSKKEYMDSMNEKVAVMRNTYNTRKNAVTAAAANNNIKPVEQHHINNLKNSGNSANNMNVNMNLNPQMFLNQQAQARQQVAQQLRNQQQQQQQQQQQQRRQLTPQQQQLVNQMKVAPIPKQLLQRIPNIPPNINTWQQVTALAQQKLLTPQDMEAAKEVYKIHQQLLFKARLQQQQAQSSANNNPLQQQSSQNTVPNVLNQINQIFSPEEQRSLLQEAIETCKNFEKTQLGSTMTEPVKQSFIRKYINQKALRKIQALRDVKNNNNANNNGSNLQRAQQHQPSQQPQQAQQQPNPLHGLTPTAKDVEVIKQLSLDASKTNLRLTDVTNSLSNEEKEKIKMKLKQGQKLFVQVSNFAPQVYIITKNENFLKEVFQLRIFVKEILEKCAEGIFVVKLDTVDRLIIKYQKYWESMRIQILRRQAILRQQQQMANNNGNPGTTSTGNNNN

T2: Med15 ABD2 (Med15 277-368) (yeast, UniProt P19659 277-368)
T2 sequence (looked up): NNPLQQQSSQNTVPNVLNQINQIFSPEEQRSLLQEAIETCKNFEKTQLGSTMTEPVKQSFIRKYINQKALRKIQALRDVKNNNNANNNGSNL

T3: Med15 ABD3 (Med15 484-651) (yeast, UniProt P19659 484-651)
T3 sequence (looked up): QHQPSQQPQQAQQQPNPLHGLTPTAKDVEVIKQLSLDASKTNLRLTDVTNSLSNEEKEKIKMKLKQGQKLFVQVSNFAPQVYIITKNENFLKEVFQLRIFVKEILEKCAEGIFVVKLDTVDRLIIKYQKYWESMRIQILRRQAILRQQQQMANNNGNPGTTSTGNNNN

T4: Med15 ABD1,2,3 (Med15 158-651 Δ239-272, Δ373-483) (yeast, UniProt P19659 158-651, Δ239-272 | Δ373-483)
T4 sequence (looked up): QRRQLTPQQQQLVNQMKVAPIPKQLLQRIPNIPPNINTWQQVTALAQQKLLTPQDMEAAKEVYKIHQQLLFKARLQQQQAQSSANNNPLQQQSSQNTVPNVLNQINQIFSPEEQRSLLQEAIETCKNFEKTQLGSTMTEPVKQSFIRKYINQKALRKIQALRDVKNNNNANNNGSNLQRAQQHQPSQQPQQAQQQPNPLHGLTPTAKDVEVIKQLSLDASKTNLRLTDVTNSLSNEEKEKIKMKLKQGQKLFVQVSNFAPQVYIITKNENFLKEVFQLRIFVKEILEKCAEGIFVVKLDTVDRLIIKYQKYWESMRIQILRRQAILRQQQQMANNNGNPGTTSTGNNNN

B1: Met4 72-160 (domain or fragment, yeast, UniProt P32389 72-160, looked up)
chain: VTNRGNTNLYDHAVTPEILLEQLAYVDNFIPSLDNEFSNVDWNVNTTHNNANNNGADTFSSINANPFDLDEQLAIELSAFADDSFIFPD
B2: Oregon Green-labeled Met4 72-160 (domain or fragment, yeast, UniProt P32389 72-160, looked up)
chain: B1 chain
modifications: Oregon Green 488 dye, N-terminal fluorescent label
B3: Oregon Green-labeled Ino2 1-41-(GS)3-96-160 (domain or fragment, yeast)
chain: MQQATGNELLGILDLDNDIDFETAYQMLSSNFDDQMSAHIHGSGSGSPHQPSMGFDQALGLKLSPSSSGLLSTNESNAIEQFLDNLISQDMMSSNASMNSESHLHIRSPKKQ
modifications: Oregon Green 488 dye, N-terminal fluorescent label
B4: Ino2 1-41-(GS)3-96-160 (domain or fragment, yeast)
chain: B3 chain
B5: Med15 ABD1 (Med15 158-238) (domain or fragment, yeast, UniProt P19659 158-238, looked up)
chain: QRRQLTPQQQQLVNQMKVAPIPKQLLQRIPNIPPNINTWQQVTALAQQKLLTPQDMEAAKEVYKIHQQLLFKARLQQQQAQ

Assay [1] deals with T1, Med15 KIX+ABD1,2,3 (Med15 1-651 …). The experiment in a line: cross-linking.
Assay [2] addresses T2, Med15 ABD2 (Med15 277-368). The assay can be described thus: ITC.
Assay [3] deals with T3, Med15 ABD3 (Med15 484-651). The experiment in a line: ITC.
Assay [4] concerns the target T1, Med15 KIX+ABD1,2,3 (Med15 1-651 …). The experiment in a line: fluorescence polarisation.
Assay [5] concerns the target T4, Med15 ABD1,2,3 (Med15 158-651 Δ239-272, …). The assay can be described thus: fluorescence polarisation.
Assay [6] deals with T3, Med15 ABD3 (Med15 484-651). The experiment in a line: fluorescence polarisation.
The target of the assay “Met4 72-160” is B1. The experiment in a line: ITC.

As to B1, the binding result in assay [1] is listed as “binds”. Further, the values for the dissociation constant (Kd) in assay [2] and in assay [3] were 20000 nM and 1360 nM, respectively.

B2: the Kd in assay [4] was 196 nM; in assay [5], ~300 nM. Further, the binding result in assay [6] is listed as “binds”.

With B3, the dissociation constant Kd is 210 nM in assay [4] and ~300 nM in assay [5]. The binding result in assay [6] was “binds”.

With B4, the equilibrium dissociation constant (Kd) came to 34000 nM in assay [2] and 7800 nM in assay [3].

For the molecule B5, in the assay with Met4 72-160, the binding result was “binds”.
